Literature values in PMC4792251.
Like-named read-outs stand apart in the source and are kept apart here.

Key:
[1] = target: BHRF1 (Epstein-Barr virus) (UniProt P03182)
Mcl-1 (Homo sapiens) [2] = target: Mcl-1 (Homo sapiens) (UniProt Q07820)
Mcl-1 (Homo sapiens) [3] = target: Mcl-1 (Homo sapiens) (UniProt Q07820); remark: listed apart in the source

Chain of UniProt Q07820 (Q07820 whole entry): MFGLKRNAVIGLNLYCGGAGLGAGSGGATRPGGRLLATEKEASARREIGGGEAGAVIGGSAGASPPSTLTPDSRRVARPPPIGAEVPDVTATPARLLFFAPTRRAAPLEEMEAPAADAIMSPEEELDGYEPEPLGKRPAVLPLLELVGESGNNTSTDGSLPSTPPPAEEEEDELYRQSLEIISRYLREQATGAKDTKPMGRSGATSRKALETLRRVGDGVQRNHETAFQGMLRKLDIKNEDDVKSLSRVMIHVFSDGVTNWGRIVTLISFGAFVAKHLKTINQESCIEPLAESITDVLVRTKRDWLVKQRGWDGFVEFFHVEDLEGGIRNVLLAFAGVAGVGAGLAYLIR
Chain of Bid BH3 peptide (P55957 80-99): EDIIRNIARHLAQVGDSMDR
Chain of Noxa B BH3 peptide (Q9JM54 68-87): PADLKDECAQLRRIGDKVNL
Chain of UniProt P03182 (P03182 whole entry): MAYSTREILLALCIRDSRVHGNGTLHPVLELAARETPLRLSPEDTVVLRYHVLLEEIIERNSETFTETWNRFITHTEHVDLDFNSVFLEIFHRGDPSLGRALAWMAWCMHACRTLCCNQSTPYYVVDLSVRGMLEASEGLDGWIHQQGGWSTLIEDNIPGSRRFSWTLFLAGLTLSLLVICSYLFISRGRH

Bid BH3 peptide
Kd [1]: 0.099 µM | Kd (Mcl-1 (Homo sapiens) [2]): < 0.01 µM

Noxa B BH3 peptide
Kd (Mcl-1 (Homo sapiens) [3]): 0.028 µM
